Measurements published in patent publication US10829528B2, “Therapeutic agents for neurological and psychiatric disorders” (VIB VZW, priority 2016, dated 2020).

How the values were obtained:
[1] = target: T1, sushi1 domain of GABABR1a (Homo sapiens, UniProt Q9UBS5); experiment: Isothermal titration calorimetry (ITC) with purified sushi1; format: binding; details: 25° C., read-out: dissociation constant (KD)
T1 construct: made in house
Experimental: (§1) We first determined which GABAB subunit and isoform sAPPα bound. The GABABR is comprised of two subunits, the GABABR1 and the GABABR2 subunit. GABABR1 is present as two main isoforms (1a and 1b), with the only difference between these isoforms being the presence of two protein-binding sushi repeats in the ectodomain of GABABR1a (FIG. 1A-B). […] The sequence of the Sushi domain 1 is […].
All ITC experiments were carried out on a MicroCal iTC200 system. For ITC experiments involving APP constructs expressed in HEK293 cells, the purified GABABR1a-Sushi1 domain, sAPPα, CuBDAcD, AcD and CuBD constructs were buffer-exchanged by size exclusion chromatography in 20 mM Na-HEPES pH 7.0, 150 mM NaCl supplemented with 5 mM CaCl2. Concentrated samples were diluted and degassed before the experiment at the concentrations reported in the FIG. legends. sAPP fragments (all of them at 30 μM) were placed in the MicroCal sample cell and matching buffer was placed in the reference cell. Sushi1 (300 μM) was in the syringe and was injected into the cell in a series of 1 μL injections at 25° C. All the datasets were subtracted with a reference data consisting of serial injections of Sushi1 in the cell, containing buffer only under the same conditions. For ITC experiments involving synthetic APP peptides, the Sushi-1 protein was dialysed overnight to PBS buffer. […]

[2] = test system: App/Aplp1 dKO primary hippocampal neurons; experiment: mEPSCs & mIPSCs in App/Aplp1 dKO primary hippocampal cultures; format: cell-based, mouse
Experimental: mEPSCs & mIPSCs are measured in cultured primary hippocampal neurons at baseline and following acute application of agonists. Excitatory terminals selectively express the sushi domain-containing GABABR1a isoform (ref18), where it functions to inhibit neurotransmitter release (ref 24). Acute exposure of primary hippocampal neurons from wild type mice to 30μM baclofen, a GABABR agonist, or 250 nM sAPPα (Fc cleaved) reduces the frequency of miniature excitatory postsynaptic currents (mEPSCs) by 68% (FIG. 8 a,b) and 39% (FIG. 8 c,d), respectively, with no effect on mEPSC amplitude (FIG. 8e). […]
Single neurons from wild type or APP/APLP1 null mutant embryos (E18) were recorded within the large neuronal network at DIV 12-15. […] Spontaneous events were detected using Mini Analysis program (Synaptosoft). mEPSCs and mIPSCs were separated on the basis of their distinct decay kinetics, using a threshold of 5 ms47. Baseline was determined from an average of 60 sec of recordings prior to protein or drug treatment. Effect of treatment was determined from an average of 30 sec recordings after 140 sec of protein or drug treatment.

[3] = target: T1, sushi1 domain of GABABR1a; experiment: BioLayer Interferometry binding of sAPPα to sushi domains
Source text: as §1

[4] = test system: primary hippocampal neurons; experiment: mEPSCs & mIPSCs in cultured primary hippocampal neurons (wild type); format: cell-based, mouse
Experimental: mEPSCs & mIPSCs are measured in cultured primary hippocampal neurons at baseline and following acute application of agonists. Excitatory terminals selectively express the sushi domain-containing GABABR1a isoform (ref18), where it functions to inhibit neurotransmitter release (ref 24). Acute exposure of primary hippocampal neurons from wild type mice to 30μM baclofen, a GABABR agonist, or 250 nM sAPPα (Fc cleaved) reduces the frequency of miniature excitatory postsynaptic currents (mEPSCs) by 68% (FIG. 8 a,b) and 39% (FIG. 8 c,d), respectively, with no effect on mEPSC amplitude (FIG. 8e). […] Acute application of 30 μM baclofen or 250 nM purified sAPPα reduces the frequency of miniature inhibitory postsynaptic currents (mIPSCs) by 63% (FIG. 8a, 9a) and 44% (FIG. 8c, 9b), respectively, which is blocked by pretreatment with the GABABR antagonist CGP55845 (CGP, 5 μM) (FIG. 8f, 9d). Application of sAPPα causes a minor (14%) reduction on mIPSC amplitude (FIG. 8e, 9c). […] Baclofen is known to reduce the frequencies of mEPSCs and mIPSCs, which we have also confirmed. […] To confirm that the agonist is acting through GABABR1a, the agonist is tested in cultures with shRNA mediated knockdown of GABABR1a or antisense oligonucleotides mediated exon skipping of the exon encoding the Sushi domain 1 of GABABR1a. Antagonists are tested by treatment in combination with the agonist, Baclofen. […] As an antagonist we test an antibody against the sushi domain sequence (SEQ ID No: 5): […] SWTDMDTPSRCV. An antibody specifically binding to this domain which acts as an antagonist increases the frequencies of mEPSCs and mIPSCs. sAPPα also reduces mEPSC and mIPSC frequency in App/Aplp1 dKO cultures (FIG. 8j, 9f), excluding the possibility that sAPPα interferes with a complex of full-length APP and GABABR1 to exert its effect on GABABR signaling.
Hippocampal neurons were cultured from E18 C57/B16 wild type mice or APP/APLP1 dKO mice (provided by Ulrike Muller46) and plated on poly-D-lysine (Millipore), and laminin (Invitrogen) coated coverslips (Nalge Nunc International). Neurons were maintained in Neurobasal medium (Invitrogen) supplemented with B27, glucose, glutamax, penicillin/streptomycin (Invitrogen) and 25 μM β-mercaptoethanol.
Single neurons from wild type or APP/APLP1 null mutant embryos (E18) were recorded within the large neuronal network at DIV 12-15. The intracellular whole-cell pipette medium contained (in mM): 136 KCl, 18 HEPES, 4 Na-ATP, 4.6 MgCl2, 15 Creatine Phosphate, 1 EGTA and 50 U/ml Phospocreatine Kinase (300 mOsm, pH 7.30). Regular external solution contained 2 mM/2 mM Ca2+/Mg2+(in mM: 140 NaCl, 2.4 KCl, 2 CaCl2), 2 MgCl2, 10 HEPES, 14 Glucose (300 mOsm, pH 7.30)) and TTX (1 μM). Pharmacological reagents (30 μM baclofen, 5 μM CGP), sAPLP1, full length sAPP and sAPP derived peptides (250 nM each) were bath applied (dissolved in external medium described above) using a separate gravity driven application inlet. Recordings were done in whole cell voltage clamp configuration at −70 mV with a double EPC-10 amplifier (HEKA Elektronik) under control of Patchmaster v2×32 software (HEKA Elektronik). Currents were low-pass filtered at 3 kHz and stored at 20 kHz. Patch pipettes were pulled from borosilicate glass using a multi-step puller (P-1000; Sutter Instruments). Pipette resistance ranged from 3 to 5 MΩ and was compensated to 75-80%. Only cells with series resistances <15 MΩ were included in analysis. All recordings were done at room temperature. Spontaneous events were detected using Mini Analysis program (Synaptosoft). mEPSCs and mIPSCs were separated on the basis of their distinct decay kinetics, using a threshold of 5 ms47. Baseline was determined from an average of 60 sec of recordings prior to protein or drug treatment. Effect of treatment was determined from an average of 30 sec recordings after 140 sec of protein or drug treatment.

T1 sequence (Q9UBS5 26-97): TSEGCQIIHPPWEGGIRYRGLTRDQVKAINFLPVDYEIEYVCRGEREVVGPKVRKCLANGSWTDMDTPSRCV

Kd [1]: 431 nM | binding of sAPPα to Sushi 1 domain by BioLayer Interferometry [3]: direct binding
B1: sAPPα: soluble amyloid precursor protein α ectodomain; mouse APP695 18-612aa, Fc tag cleaved (protein)
chain: LEVPTDGNAGLLAEPQIAMFCGKLNMHMNVQNGKWESDPSGTKTCIGTKEGILQYCQEVYPELQITNVVEANQPVTIQNWCKRGRKQCKTHTHIVIPYRCLVGEFVSDALLVPDKCKFLHQERMDVCETHLHWHTVAKETCSEKSTNLHDYGMLLPCGIDKFRGVEFVCCPLAEESDSVDSADAEEDDSDVWWGGADTDYADGGEDKVVEVAEEEEVADVEEEEADDDEDVEDGDEVEEEAEEPYEEATERTTSTATTTTTTTESVEEVVRVPTTAASTPDAVDKYLETPGDENEHAHFQKAKERLEAKHRERMSQVMREWEEAERQAKNLPKADKKAVIQHFQEKVESLEQEAANERQQLVETHMARVEAMLNDRRRLALENYITALQAVPPRPHHVFNMLKKYVRAEQKDRQHTLKHFEHVRMVDPKKAAQIRSQVMTHLRVIYERMNQSLSLLYNVPAVAEEIQDEVDELLQKEQNYSDDVLANMISEPRISYGNDALMPSLTETKTTVELLPVNGEFSLDDLQPWHPFGVDSVPANTENEVEPVDARPAADRGLTTRPGSGLTNIKTEEISEVKMDAEFGHDSGFEVRHQK
effect on mEPSC frequency [2]: reduces | effect on mIPSC frequency [2]: reduces | reduction of mIPSC amplitude ([4]; 250 nM sAPPα): 14% | effect on mEPSC amplitude ([4]; 250 nM, acute exposure): no effect | reduction of mIPSC frequency ([4]; acute application, 30 μM baclofen, 250 nM proteins): 44% | reduction of mEPSC frequency ([4]; acute exposure, 30 μM baclofen or 250 nM sAPPα (Fc cleaved), wild type mice): 39%
